15 molecules from patent US20030068675, “Position dependent recognition of GNN nucleotide triplets by zinc fingers” (published 2003) can be followed below.

Common to all, as to experiment: EMSA
Common to all, as to conditions: tags: MBP fusion

One data set concerns the target T1, ZFP SBS#1318 (synthetic, UniProt P08047).
T1 chain: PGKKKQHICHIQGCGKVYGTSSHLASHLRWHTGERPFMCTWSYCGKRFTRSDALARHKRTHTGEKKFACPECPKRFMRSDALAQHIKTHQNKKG
Put shortly: (§1)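 Purified ZFP was titrated against labeled double-stranded target (1 nM or lower, at least 10-fold below expected Kd) carrying the natural binding site with flanks. Binding buffer was 10 mM Tris pH 7.5, 100 mM KCl, 1 mM MgCl2, 0.1 mM ZnCl2, 5 mM DTT, 10% glycerol, 0.02% BSA, with equilibration for at least 45 min. Bound and free target were separated on a 10% polyacrylamide gel.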

The target in a further data set is T2, ZFP SBS#1319 (synthetic).
T2 chain: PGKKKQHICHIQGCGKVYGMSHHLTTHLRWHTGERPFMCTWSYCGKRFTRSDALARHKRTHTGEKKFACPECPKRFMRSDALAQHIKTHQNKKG
Put shortly: as §1

The target in another data set is T3, ZFP SBS#1239 (synthetic).
T3 chain: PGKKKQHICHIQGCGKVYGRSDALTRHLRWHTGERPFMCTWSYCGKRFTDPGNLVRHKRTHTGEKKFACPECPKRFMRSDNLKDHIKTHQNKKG
The method, boiled down: as §1

A further data set concerns the target ZFP SBS#1298 (synthetic). Put shortly: as §1
In a further data set the target is ZFP SBS#1313 (synthetic, UniProt P08047). Put shortly:
as §1

Another data set deals with ZFP SBS#1312 (synthetic, UniProt P08047). The method, boiled down:
as §1

Another data set addresses T4, ZFP SBS#1309 (synthetic).
T4 chain: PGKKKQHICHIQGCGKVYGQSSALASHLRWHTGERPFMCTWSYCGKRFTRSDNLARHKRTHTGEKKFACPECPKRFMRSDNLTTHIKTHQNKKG
Put shortly:
as §1

Another data set addresses T5, ZFP SBS#1303 (synthetic).
T5 chain: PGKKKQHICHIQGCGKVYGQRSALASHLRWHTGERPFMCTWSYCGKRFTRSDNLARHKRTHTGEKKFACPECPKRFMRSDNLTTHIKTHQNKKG
The method, boiled down: as §1

Another data set addresses T6, ZFP SBS#1310 (synthetic, UniProt P08047).
T6 chain: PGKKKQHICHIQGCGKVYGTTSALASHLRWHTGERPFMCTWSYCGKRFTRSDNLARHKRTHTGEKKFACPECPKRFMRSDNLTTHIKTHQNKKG
Put shortly: as §1

A further data set deals with T7, ZFP SBS#1252 (synthetic).
T7 chain: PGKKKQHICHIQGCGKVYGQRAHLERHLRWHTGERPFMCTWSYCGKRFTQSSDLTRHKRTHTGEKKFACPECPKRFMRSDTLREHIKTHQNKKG
The method, boiled down: as §1

A further data set deals with T8, ZFP SBS#1302 (synthetic).
T8 chain: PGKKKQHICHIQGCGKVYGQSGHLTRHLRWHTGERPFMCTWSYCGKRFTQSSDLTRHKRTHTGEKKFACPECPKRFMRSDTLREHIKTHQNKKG
Put shortly: as §1

The next data set addresses ZFP SBS#1315 (synthetic). The method, boiled down: as §1
The target of another data set is ZFP SBS#1314 (synthetic). Put shortly: as §1
The next data set deals with ZFP SBS#1311 (synthetic). Put shortly: as §1
ZFP SBS#1311 (synthetic), sequence (chain, as listed by the source): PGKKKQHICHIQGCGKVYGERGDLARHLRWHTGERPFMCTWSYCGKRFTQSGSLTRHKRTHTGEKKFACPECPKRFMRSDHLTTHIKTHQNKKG
The next data set deals with T9, ZFP SBS#1308 (synthetic).
T9 chain: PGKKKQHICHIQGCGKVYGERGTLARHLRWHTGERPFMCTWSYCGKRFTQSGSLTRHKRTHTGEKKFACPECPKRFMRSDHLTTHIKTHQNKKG
The method, boiled down: as §1

The target in a further data set is ZFP SBS#1297 (synthetic). Put shortly:
as §1

A further data set deals with T10, ZFP SBS#1276 (synthetic).
T10 chain: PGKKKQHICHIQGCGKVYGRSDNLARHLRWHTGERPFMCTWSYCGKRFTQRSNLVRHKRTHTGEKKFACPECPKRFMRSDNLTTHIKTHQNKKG
Put shortly:
as §1

In a further data set the target is T11, ZFP SBS#1296 (synthetic).
T11 chain: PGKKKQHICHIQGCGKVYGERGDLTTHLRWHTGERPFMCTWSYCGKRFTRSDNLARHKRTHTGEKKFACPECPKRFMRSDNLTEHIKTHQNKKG
Put shortly:
as §1

The next data set concerns the target T12, ZFP SBS#1273 (synthetic).
T12 chain: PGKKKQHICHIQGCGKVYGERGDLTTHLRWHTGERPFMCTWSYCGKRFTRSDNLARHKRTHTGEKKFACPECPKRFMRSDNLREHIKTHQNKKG
The method, boiled down: as §1

For the next data set, the target named is T13, ZFP SBS#1272 (synthetic).
T13 chain: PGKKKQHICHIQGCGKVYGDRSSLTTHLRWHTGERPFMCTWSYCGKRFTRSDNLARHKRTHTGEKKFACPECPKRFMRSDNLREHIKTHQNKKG
Put shortly: as §1

Another data set addresses T14, ZFP SBS#1295 (synthetic).
T14 chain: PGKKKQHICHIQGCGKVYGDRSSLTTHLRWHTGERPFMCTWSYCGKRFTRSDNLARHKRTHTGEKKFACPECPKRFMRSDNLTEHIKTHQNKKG
Put shortly: as §1

The target in a further data set is ZFP SBS#1323 (synthetic). The method, boiled down:
as §1

The target of a further data set is ZFP SBS#1324 (synthetic). Put shortly: as §1
ZFP SBS#1324 (synthetic), sequence (chain, as listed by the source): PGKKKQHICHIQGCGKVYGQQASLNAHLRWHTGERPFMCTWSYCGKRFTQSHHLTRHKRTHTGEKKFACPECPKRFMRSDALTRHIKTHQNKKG
The next data set concerns the target ZFP SBS#1322 (synthetic). The method, boiled down: as §1
Another data set addresses T15, ZFP SBS#526 (synthetic).
T15 chain: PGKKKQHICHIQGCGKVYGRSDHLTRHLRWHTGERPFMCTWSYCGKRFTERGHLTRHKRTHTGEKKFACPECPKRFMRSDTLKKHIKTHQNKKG
Put shortly:
as §1

For the next data set, the target named is T16, ZFP SBS#739 (synthetic).
T16 chain: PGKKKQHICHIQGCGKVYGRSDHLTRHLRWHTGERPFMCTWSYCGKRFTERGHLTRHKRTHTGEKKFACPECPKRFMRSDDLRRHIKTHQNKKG
Put shortly:
as §1

The target of another data set is T17, ZFP SBS#1325 (synthetic).
T17 chain: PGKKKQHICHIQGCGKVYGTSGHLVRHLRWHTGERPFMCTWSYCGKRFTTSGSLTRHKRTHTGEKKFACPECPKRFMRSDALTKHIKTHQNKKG
Put shortly: as §1

Another data set concerns the target T18, ZFP SBS#1328 (synthetic).
T18 chain: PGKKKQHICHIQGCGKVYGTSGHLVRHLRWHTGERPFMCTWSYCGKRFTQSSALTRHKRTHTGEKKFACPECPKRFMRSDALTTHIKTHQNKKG
The method, boiled down:
as §1

In the next data set the target is T19, ZFP SBS#1327 (synthetic).
T19 chain: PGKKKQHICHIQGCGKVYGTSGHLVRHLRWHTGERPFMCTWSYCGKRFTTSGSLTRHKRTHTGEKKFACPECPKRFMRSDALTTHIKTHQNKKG
The method, boiled down: as §1

In another data set the target is T20, ZFP SBS#1326 (synthetic).
T20 chain: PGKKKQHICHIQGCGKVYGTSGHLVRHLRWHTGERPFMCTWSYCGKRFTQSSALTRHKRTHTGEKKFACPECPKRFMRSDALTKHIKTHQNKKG
Put shortly: as §1

Another data set has as its target T21, ZFP SBS#1306 (synthetic).
T21 chain: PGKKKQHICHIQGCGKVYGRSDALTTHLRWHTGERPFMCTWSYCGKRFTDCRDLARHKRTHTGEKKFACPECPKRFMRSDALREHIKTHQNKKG
Put shortly: as §1

The next data set concerns the target T22, ZFP SBS#1320 (synthetic).
T22 chain: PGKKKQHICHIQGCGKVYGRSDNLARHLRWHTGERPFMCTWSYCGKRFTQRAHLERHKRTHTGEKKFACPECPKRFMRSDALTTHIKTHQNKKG
The method, boiled down:
as §1

Another data set concerns the target T23, ZFP SBS#1321 (synthetic).
T23 chain: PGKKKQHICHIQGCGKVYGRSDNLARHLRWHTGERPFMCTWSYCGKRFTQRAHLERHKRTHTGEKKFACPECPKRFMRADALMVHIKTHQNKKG
Put shortly: as §1

Another data set has as its target T24, ZFP SBS#1248 (synthetic).
T24 chain: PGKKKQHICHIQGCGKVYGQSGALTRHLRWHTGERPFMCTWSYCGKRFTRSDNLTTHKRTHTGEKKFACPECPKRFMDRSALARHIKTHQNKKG
Put shortly:
as §1

The next data set concerns the target ZFP SBS#1300 (synthetic). Put shortly: as §1

The term Kd denotes the concentration at which binding is half-saturated. A low value points to a tighter complex.

ZFP SBS#1298 (synthetic), sequence (chain, as listed by the source): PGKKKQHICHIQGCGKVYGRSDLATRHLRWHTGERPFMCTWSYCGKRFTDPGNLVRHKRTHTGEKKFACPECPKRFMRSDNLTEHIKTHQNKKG
ZFP SBS#1300 (synthetic), sequence (chain, as listed by the source): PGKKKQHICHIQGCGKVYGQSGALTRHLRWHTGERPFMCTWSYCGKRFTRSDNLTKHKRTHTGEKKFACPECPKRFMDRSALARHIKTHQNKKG
ZFP SBS#1315 (synthetic), sequence (chain, as listed by the source): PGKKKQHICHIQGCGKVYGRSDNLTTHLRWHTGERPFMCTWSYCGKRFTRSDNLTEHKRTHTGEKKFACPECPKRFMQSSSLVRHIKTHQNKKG
ZFP SBS#1297 (synthetic), sequence (chain, as listed by the source): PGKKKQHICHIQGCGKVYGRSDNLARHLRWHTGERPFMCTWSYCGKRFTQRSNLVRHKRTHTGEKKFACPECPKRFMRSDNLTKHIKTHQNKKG
ZFP SBS#1313, sequence (P08047 other isoform, or with tags, fused parts or gaps): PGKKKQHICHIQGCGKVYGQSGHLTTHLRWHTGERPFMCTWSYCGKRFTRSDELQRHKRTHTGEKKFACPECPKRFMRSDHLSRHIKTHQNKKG
ZFP SBS#1312, sequence (P08047 other isoform, or with tags, fused parts or gaps): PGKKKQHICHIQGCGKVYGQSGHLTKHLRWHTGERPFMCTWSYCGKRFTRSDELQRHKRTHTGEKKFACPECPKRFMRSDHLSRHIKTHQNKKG
ZFP SBS#1322 (synthetic), sequence (chain, as listed by the source): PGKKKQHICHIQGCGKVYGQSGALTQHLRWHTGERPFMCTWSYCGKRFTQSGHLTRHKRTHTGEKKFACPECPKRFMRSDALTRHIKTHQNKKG

B1: ATGGTGTGT (dsDNA)
DNA 1: ATGGTGTGT
DNA 2: ACACACCAT
B1: the values for the Kd with ZFP SBS#1318 and in the data set with ZFP SBS#1319 were 48 pM and 228 pM, respectively.

B2: CAGGACGTG (dsDNA)
DNA 1: CAGGACGTG
DNA 2: CACGTCCTG
In the case of B2, the Kd in the data set with ZFP SBS#1239 was 144 pM; in the data set with ZFP SBS#1298, 50 pM.

B3: GGGGCGTGA (dsDNA)
DNA 1: GGGGCGTGA
DNA 2: TCACGCCCC
Turning to B3, the Kd was determined as 90 pM with ZFP SBS#1313 and 230 pM in the data set with ZFP SBS#1312.

B4: TAGGAGTTT (dsDNA)
DNA 1: TAGGAGTTT
DNA 2: AAACTCCTA
With B4, the Kd with ZFP SBS#1309 was determined as 184 pM; in the data set with ZFP SBS#1303 it was 88 pM; with ZFP SBS#1310 it was 75 pM.

B5: CCGGCTGGA (dsDNA)
DNA 1: CCGGCTGGA
DNA 2: TCCAGCCGG
On to B5, for which the equilibrium dissociation constant (Kd) with ZFP SBS#1252 is 153 pM; with ZFP SBS#1302, 50 pM.

B6: GTACAGTAG (dsDNA)
DNA 1: GTACAGTAG
DNA 2: CTACTGTAC
For the molecule B6, the values for the Kd with ZFP SBS#1315 and with ZFP SBS#1314 were 9270 pM and 3090 pM, respectively.

B7: TGGGCAGCC (dsDNA)
DNA 1: TGGGCAGCC
DNA 2: GGCTGCCCA
B7: the results for the equilibrium dissociation constant (Kd) with ZFP SBS#1311 and with ZFP SBS#1308 were 910 pM and 305 pM, respectively.

B8: TAGGAAGAG (dsDNA)
DNA 1: TAGGAAGAG
DNA 2: CTCTTCCTA
For the molecule B8, the dissociation constant Kd with ZFP SBS#1297 stood at 50 pM; in the data set with ZFP SBS#1276, 685 pM.

B9: CAGGAGTCC (dsDNA)
DNA 1: CAGGAGTCC
DNA 2: GGACTCCTG
With B9, the dissociation constant (Kd) is 37000 pM with ZFP SBS#1296, 100 pM in the data set with ZFP SBS#1273, 40 pM with ZFP SBS#1272 and 116 pM with ZFP SBS#1295.

B10: GTGGGAATA (dsDNA)
DNA 1: GTGGGAATA
DNA 2: TATTCCCAC
Regarding B10, the Kd stood at 744 pM in the data set with ZFP SBS#1323, 18500 pM with ZFP SBS#1324 and 799 pM with ZFP SBS#1322.

B11: GCGGGCGGGC (dsDNA)
DNA 1: GCGGGCGGGC
DNA 2: GCCCGCCCGC
In the case of B11, the equilibrium dissociation constant (Kd) with ZFP SBS#526 came to 8000 pM; with ZFP SBS#739, 16500 pM.

B12: TTGGTTGGT (dsDNA)
DNA 1: TTGGTTGGT
DNA 2: ACCAACCAA
For B12, the Kd came to 306 pM with ZFP SBS#1325, 7950 pM with ZFP SBS#1328, 566 pM with ZFP SBS#1327 and 4380 pM with ZFP SBS#1326.

B13: CTGGCCTTG (dsDNA)
DNA 1: CTGGCCTTG
DNA 2: CAAGGCCAG
With B13, binding in the data set with ZFP SBS#1306 was put at a Kd of 2280 pM.

B14: TTGGGAGAG (dsDNA)
DNA 1: TTGGGAGAG
DNA 2: CTCTCCCAA
On to B14, for which the dissociation constant (Kd) in the data set with ZFP SBS#1320 was determined as 44 pM; in the data set with ZFP SBS#1321, 127 pM.

B15: GTCTAGGTA (dsDNA)
DNA 1: GTCTAGGTA
DNA 2: TACCTAGAC
As to B15, the Kd in the data set with ZFP SBS#1248 was 5140 pM; with ZFP SBS#1300, 460 pM.
